Assay results from PMC4753479, “A CAPS-based binding assay provides semi-quantitative validation of protein-DNA interactions”.

T1: rOsVAL2-B3 (rice, UniProt Q6Z3U3 144-517)
T1 sequence: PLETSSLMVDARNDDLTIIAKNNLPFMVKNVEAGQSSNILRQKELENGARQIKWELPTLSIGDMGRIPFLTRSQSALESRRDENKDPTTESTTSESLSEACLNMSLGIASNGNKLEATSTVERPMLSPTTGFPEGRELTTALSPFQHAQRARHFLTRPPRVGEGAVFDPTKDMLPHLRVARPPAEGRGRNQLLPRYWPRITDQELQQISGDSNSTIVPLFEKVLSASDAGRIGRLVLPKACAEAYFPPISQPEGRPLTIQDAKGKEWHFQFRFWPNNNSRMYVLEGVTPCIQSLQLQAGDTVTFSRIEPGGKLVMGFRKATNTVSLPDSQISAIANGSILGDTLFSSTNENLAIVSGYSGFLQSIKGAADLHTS

T2: rOsGD1-B3 (rice, UniProt Q0D5G4 342-640)
T2 sequence: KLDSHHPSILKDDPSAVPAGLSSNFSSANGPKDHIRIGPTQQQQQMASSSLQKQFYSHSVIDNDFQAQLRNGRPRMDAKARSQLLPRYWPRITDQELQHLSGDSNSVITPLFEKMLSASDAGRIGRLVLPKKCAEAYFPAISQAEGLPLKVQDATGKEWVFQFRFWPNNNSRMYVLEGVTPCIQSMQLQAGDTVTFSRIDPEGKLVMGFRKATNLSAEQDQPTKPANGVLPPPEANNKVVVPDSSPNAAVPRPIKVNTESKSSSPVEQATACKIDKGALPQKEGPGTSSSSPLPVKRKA

B1: WT RY pull-down probe (dsDNA)
DNA 1: TAATTGCATGCATATATGCACGC
DNA 2: GCGTGCATATATGCATGCAATTA

How the values were obtained:
rOsVAL2-B3 [1] = biological target: T1, rOsVAL2-B3; experiment: restriction protection (CBA); details: NsiI, same inhibitory effect as 5 ug rOsGD1-B3, 150 ng DNA in 15 ul, CBA: restriction enzyme buffer, 1-7 ug protein, 30 min at 37 C then 1 h digestion at 37 C, pull-down: 1 ug biotinylated DNA, 12 h …
rOsGD1-B3 [2] = biological target: T2, rOsGD1-B3; experiment: restriction protection (CBA); details: 150 ng DNA in 15 ul, CBA: restriction enzyme buffer, 1-7 ug protein, 30 min at 37 C then 1 h digestion at 37 C, pull-down: 1 ug biotinylated DNA, 12 h …
rOsGD1-B3 [3] = biological target: T2, rOsGD1-B3; experiment: pull-down; weaker than rOsVAL2-B3; CBA: restriction enzyme buffer, 150 ng DNA, 1-7 ug protein, 15 ul, 30 min at 37 C then 1 h digestion at 37 C; pull-down: 1 ug biotinylated DNA, 12 h, streptavidin-agarose, wash TBS (20 mM Tris, 150 mM NaCl), competitors 5x/10x/20x; details: protein: recombinant; tags: 6xHis (pGoldI); label: 5' biotin, both strands; blunt
rOsVAL2-B3 [4] = biological target: T1, rOsVAL2-B3; experiment: pull-down; stronger than rOsGD1-B3; CBA: restriction enzyme buffer, 150 ng DNA, 1-7 ug protein, 15 ul, 30 min at 37 C then 1 h digestion at 37 C; pull-down: 1 ug biotinylated DNA, 12 h, streptavidin-agarose, wash TBS (20 mM Tris, 150 mM NaCl), competitors 5x/10x/20x; details: protein: recombinant; tags: 6xHis (pGoldI); label: 5' biotin, both strands; blunt

Molecule	binding signal (rOsVAL2-B3 [1]) [µg protein]	protein amount for inhibition of NsiI digestion (rOsGD1-B3 [2]) [µg protein]	binding result (rOsGD1-B3 [3])	binding result (rOsVAL2-B3 [4])
WT RY-DNA 420 bp	3	5	–	–
B1	–	–	binds	binds
